{
  "source": "paper PMC7761212",
  "origin": "cited, not measured here",
  "molecular_target": "rice hemoglobin (Oryza sativa) (UniProt O04986)",
  "data": [
    {"substance": "rice hemoglobin (from UniProt O04986)", "values": [
      {"measurement": "Kd", "result": 80, "unit": "µM"}
    ]}
  ]
}
